In experiment [1] the target is T1, LILRA5-His (Acro, LI5-H82E1) (human, UniProt A6NI73 42-268).
T1 construct: Bought protein. 'Human' stands at the head of the list of coated proteins; not shown: His tag
Briefly: ELISA, coated protein 1 µg/mL. (In general: In an ELISA, binding on a coated surface is turned into a signal by an enzyme label.)

In experiment [2] the target is T2, LILRA6-His (Acro, LI6-H82E2) (human, UniProt Q6PI73 24-447).
T2 construct: Bought protein. 'Human' stands at the head of the list of coated proteins; not shown: His tag
T2 sequence (Q6PI73 24-447 limits assumed): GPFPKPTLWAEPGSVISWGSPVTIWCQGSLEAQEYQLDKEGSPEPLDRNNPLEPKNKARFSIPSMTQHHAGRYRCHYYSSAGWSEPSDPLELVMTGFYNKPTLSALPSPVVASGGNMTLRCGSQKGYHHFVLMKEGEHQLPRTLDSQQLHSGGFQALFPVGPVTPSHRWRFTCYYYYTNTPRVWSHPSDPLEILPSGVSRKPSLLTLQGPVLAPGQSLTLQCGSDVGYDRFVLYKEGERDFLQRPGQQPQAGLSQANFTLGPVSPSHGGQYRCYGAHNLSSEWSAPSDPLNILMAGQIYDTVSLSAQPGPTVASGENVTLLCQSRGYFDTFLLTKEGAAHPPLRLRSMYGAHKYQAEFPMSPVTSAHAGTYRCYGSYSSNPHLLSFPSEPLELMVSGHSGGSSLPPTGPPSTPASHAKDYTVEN
Briefly: ELISA, coated protein 1 µg/mL.

In experiment [3] the target is T3, His-tagged ILT2 protein extracellular domain: ILT2-His (human, UniProt Q8NHL6 24-461).
T3 construct: The entry is the whole construct, with the His tag; also called human ILT2 protein
T3 sequence (Q8NHL6 other isoform, or with tags, fused parts or gaps): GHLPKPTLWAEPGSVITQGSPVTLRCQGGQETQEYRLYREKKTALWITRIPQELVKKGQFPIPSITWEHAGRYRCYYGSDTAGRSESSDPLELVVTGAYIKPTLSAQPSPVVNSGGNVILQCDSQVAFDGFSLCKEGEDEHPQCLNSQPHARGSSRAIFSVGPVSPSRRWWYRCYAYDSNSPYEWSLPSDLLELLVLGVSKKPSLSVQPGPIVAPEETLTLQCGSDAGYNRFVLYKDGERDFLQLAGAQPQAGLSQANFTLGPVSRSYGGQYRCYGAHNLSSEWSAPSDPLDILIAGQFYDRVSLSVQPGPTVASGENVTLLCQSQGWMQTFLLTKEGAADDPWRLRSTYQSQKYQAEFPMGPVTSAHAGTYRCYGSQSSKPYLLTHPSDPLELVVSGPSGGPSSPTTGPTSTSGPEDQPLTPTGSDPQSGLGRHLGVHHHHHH
Briefly: ELISA, coated protein 1 µg/mL.

For experiment [4], the target named is T4, His-tagged ILT3 protein extracellular domain: ILT3-His (human, UniProt Q8NHJ6 22-259).
T4 construct: The entry is the whole construct, with the His tag
Description: ELISA, coated protein 1 µg/mL.

Experiment [5] deals with T5, LILRB5-His (Acro, CDC-H5220) (human, UniProt O75023 24-458, limits assumed).
T5 construct: Bought protein. 'Human' stands at the head of the list of coated proteins; not shown: His tag
T5 sequence (O75023 24-458 limits assumed): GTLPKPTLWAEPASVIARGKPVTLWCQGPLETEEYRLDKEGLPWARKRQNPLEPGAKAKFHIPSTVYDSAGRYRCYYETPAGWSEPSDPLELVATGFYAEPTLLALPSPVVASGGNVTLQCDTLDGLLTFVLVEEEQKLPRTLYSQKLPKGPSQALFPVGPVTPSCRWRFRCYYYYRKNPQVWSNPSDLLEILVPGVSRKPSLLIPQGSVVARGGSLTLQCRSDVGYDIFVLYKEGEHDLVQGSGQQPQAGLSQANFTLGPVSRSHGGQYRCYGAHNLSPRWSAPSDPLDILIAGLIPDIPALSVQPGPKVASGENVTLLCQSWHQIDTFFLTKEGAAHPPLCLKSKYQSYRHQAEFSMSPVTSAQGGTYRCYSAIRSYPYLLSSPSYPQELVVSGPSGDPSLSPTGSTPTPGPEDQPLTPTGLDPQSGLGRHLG
Briefly: ELISA, coated protein 1 µg/mL.

The target of experiment [6] is T6, LILRA1-His (Acro, LI1-H82E8) (human, UniProt O75019 17-461).
T6 construct: Bought protein. 'Human' stands at the head of the list of coated proteins; not shown: His tag
T6 sequence (O75019 17-461 limits assumed): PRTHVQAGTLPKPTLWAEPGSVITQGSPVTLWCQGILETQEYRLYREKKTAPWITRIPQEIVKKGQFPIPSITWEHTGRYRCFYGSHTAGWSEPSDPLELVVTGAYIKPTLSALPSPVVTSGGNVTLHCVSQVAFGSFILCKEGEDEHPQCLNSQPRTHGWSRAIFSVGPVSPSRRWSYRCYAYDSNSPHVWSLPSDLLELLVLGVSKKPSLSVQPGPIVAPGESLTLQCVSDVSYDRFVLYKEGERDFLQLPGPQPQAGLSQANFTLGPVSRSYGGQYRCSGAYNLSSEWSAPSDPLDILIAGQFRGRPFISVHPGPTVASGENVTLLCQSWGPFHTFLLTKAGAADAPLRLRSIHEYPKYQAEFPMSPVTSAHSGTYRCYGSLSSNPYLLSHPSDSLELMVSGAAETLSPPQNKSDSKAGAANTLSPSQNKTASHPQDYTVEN
Description: ELISA, coated protein 1 µg/mL.

Experiment [7] deals with T7, LILRA2-His (Acro, LI2-H82E9) (human, UniProt Q8N149 24-449).
T7 construct: Bought protein. 'Human' stands at the head of the list of coated proteins; not shown: His tag
T7 sequence (Q8N149 24-449 limits assumed): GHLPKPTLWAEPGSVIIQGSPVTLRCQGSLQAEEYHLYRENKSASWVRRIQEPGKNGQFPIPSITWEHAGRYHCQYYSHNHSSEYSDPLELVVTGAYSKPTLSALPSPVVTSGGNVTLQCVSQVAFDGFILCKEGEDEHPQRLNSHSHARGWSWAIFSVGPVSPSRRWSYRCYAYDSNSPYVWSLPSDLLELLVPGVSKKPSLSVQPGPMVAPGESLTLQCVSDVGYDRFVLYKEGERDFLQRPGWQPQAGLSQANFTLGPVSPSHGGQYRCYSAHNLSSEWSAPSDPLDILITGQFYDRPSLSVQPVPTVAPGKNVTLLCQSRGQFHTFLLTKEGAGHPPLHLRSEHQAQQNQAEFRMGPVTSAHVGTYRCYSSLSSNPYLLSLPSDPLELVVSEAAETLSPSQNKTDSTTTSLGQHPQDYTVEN
Description: ELISA, coated protein 1 µg/mL.

Experiment [8] addresses T8, LILRA3-His (Acro, LI3-H82E0) (human, UniProt Q8N6C8 24-439).
T8 construct: Bought protein. 'Human' stands at the head of the list of coated proteins; not shown: His tag
Description: ELISA, coated protein 1 µg/mL.

Experiment [9] deals with T9, LILRA4-His (SinoBiological, 16058-H08H) (human, UniProt P59901 24-446).
T9 construct: Bought protein. 'Human' stands at the head of the list of coated proteins; not shown: His tag
T9 sequence (P59901 24-446 limits assumed): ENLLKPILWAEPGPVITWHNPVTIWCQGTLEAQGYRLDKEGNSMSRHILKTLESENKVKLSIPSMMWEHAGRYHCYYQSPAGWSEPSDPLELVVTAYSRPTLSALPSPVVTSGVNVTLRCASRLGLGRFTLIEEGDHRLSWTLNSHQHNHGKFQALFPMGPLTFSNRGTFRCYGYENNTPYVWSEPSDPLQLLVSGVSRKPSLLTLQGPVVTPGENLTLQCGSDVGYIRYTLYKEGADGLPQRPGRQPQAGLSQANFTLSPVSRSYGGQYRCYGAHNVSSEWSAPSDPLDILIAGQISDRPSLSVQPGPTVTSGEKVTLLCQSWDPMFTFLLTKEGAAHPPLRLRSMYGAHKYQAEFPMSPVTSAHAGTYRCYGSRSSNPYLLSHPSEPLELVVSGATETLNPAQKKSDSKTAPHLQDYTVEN
Briefly: ELISA, coated protein 1 µg/mL.

In experiment [10] the target is T10, His-tagged ILT4 protein extracellular domain: ILT4-His (human, UniProt Q8N423 22-460).
T10 construct: Expressed in 293 cells; also called human ILT4-His protein
T10 sequence (Q8N423 other isoform, or with tags, fused parts or gaps limits assumed): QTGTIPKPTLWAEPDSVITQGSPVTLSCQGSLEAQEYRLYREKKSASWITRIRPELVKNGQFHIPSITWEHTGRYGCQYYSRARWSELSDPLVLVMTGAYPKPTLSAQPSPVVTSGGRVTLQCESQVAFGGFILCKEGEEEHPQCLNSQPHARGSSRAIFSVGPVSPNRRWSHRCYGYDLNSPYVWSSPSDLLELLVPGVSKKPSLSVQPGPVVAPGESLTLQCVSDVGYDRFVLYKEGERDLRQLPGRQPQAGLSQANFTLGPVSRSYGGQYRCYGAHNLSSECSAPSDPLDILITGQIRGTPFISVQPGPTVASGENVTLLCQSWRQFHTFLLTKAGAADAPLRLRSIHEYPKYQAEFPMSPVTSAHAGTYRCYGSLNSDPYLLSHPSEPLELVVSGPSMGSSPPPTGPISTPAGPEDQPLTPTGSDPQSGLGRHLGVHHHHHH
Briefly: ELISA, coated protein 1 µg/mL, antibody 10 µg/mL.

For experiment [11], the target named is T1, LILRA5-His (Acro, LI5-H82E1). Description: ELISA, coated protein 1 µg/mL, antibody 10 µg/mL.
Experiment [12] addresses T2, LILRA6-His (Acro, LI6-H82E2). Briefly: ELISA, coated protein 1 µg/mL, antibody 10 µg/mL.
In experiment [13] the target is T3, His-tagged ILT2 protein extracellular …. Description: ELISA, coated protein 1 µg/mL, antibody 10 µg/mL.
The target in experiment [14] is T4, His-tagged ILT3 protein extracellular …. Description: ELISA, coated protein 1 µg/mL, antibody 10 µg/mL.
For experiment [15], the target named is T5, LILRB5-His (Acro, CDC-H5220). Description: ELISA, coated protein 1 µg/mL, antibody 10 µg/mL.
In experiment [16] the target is T6, LILRA1-His (Acro, LI1-H82E8). Description: ELISA, coated protein 1 µg/mL, antibody 10 µg/mL.
Experiment [17] has as its target T7, LILRA2-His (Acro, LI2-H82E9). Description: ELISA, coated protein 1 µg/mL, antibody 10 µg/mL.
Experiment [18] addresses T8, LILRA3-His (Acro, LI3-H82E0). Description: ELISA, coated protein 1 µg/mL, antibody 10 µg/mL.
Experiment [19] has as its target T9, LILRA4-His (SinoBiological, 16058-H08H). Briefly: ELISA, coated protein 1 µg/mL, antibody 10 µg/mL.
In experiment [20] the target is T10, His-tagged ILT4 protein extracellular …. Briefly: SPR (Biacore), antibody captured on Protein A chip, ILT4-His as analyte, 1:1 model. For orientation: In SPR one partner is held on a chip, and binding of the other changes the refractive index at the surface.
The target of experiment [21] is T11, full-length human ILT4 protein overexpressed on cells (human, UniProt Q8N423 22-597).
T11 construct: also called CHO-S/ILT4; ILT4 stably transfected cell strain
T11 sequence (Q8N423 other isoform, or with tags, fused parts or gaps limits assumed): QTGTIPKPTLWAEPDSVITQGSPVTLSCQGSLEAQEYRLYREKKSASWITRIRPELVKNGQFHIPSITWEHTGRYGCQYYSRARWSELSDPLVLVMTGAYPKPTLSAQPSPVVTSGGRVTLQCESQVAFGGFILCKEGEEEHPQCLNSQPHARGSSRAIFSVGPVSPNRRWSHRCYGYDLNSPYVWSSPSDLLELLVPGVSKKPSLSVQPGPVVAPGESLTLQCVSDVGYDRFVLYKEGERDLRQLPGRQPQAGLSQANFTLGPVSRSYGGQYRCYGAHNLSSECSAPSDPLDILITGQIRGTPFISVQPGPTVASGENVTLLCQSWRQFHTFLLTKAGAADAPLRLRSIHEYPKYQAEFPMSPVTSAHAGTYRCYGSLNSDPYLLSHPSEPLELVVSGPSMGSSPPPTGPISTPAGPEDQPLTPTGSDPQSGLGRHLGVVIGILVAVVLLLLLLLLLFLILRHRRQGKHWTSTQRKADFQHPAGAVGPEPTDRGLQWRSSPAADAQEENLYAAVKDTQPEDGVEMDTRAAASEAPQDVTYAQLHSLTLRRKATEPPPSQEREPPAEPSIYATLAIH
Description: flow cytometry competition on CHO-S/ILT4 cells; competitor CF647-labelled HLA-G tetramer; Assay 2.

Experiment [22] addresses T10, His-tagged ILT4 protein extracellular …. Briefly: ELISA, coated ILT4-His 1 µg/mL; Assay 5.
The target in experiment [23] is T11, full-length human ILT4 protein …. Description: flow cytometry competition on CHO-S/ILT4 cells; competitor CF647-labelled HLA-G tetramer; Assay 3. For orientation: In flow cytometry, cells or beads pass a laser one at a time.

T1 sequence (A6NI73 42-268 limits assumed): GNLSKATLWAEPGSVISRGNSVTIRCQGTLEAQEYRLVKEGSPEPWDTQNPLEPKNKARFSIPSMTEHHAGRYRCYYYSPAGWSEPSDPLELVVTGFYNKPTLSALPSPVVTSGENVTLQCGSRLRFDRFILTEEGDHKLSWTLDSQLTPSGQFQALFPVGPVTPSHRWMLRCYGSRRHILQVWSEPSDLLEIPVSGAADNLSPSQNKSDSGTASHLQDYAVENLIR
T8 sequence (Q8N6C8 24-439 limits assumed): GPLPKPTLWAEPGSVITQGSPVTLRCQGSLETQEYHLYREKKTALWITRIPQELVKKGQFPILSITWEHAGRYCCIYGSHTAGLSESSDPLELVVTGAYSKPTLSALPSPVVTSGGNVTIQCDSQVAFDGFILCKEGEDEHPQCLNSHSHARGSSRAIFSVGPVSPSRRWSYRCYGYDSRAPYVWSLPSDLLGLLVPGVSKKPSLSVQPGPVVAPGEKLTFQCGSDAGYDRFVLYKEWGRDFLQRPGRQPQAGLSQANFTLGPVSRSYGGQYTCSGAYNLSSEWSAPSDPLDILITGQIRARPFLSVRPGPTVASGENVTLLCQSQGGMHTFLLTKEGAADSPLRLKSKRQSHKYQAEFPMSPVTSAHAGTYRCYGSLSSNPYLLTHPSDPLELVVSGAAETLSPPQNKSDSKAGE

B1: humanized antibody huP2-G9 (antibody, human IgG1, kappa, L234A L235A, V domains shown)
VH: EVQLQESGPGLVKPSQTLSLTCTVSGSSITSGYYWNWIRQHPGKGLEWIGYLSYDGSNNYNPSLKNLVTISRDTSKNQFSLKLSSVTAADTAVYYCAREGAHYSGTLSWFAYWGQGTLVTVSS
VL: DIQMTQSPSSLSASVGDRVTITCRASENIYSNLAWYQQKPGKSPKLLVYAATNLADGVPSRFSGSGSGTDYTLTISSLQPEDFATYYCQHFWDTPYTFGGGTKVEIKR
notes: Full chains; also called P2-G9H1L2
On to B1, for which the binding result in experiment [1], in experiment [2], in [3], in [4], in experiment [5] and in [6] was “no binding (tested: 10 µg/mL)” each time. Besides, the binding result in [7], in experiment [8] and in experiment [9] was “no binding (tested: 10 µg/mL)” each time. The “absorbance at 450 nm” value was determined as 1.77 absorbance at 450 nm in experiment [10]; 0.0441 absorbance at 450 nm in experiment [11]; 0.0449 absorbance at 450 nm in experiment [12]; 0.0541 absorbance at 450 nm in [13]; 0.0564 absorbance at 450 nm in [14]; 0.0533 absorbance at 450 nm in [15]. For the same molecule, the “absorbance at 450 nm” value was determined as 0.0457 absorbance at 450 nm in experiment [16], 0.0759 absorbance at 450 nm in experiment [17], 0.0461 absorbance at 450 nm in [18] and 0.0674 absorbance at 450 nm in experiment [19]. In [20], the Kd came to 0.109 nM. This molecule also registered a koff in experiment [20] of 0.000109 s⁻¹. The molecule further showed a kon in [20] of 999000 M⁻¹ s⁻¹. The IC50 in experiment [21] was found to be 0.085 µg/mL.

B2: humanized antibody huP2-E8 (antibody, human IgG4 S228P, kappa, F234A L235A, V domains shown)
VH: EVQLVESGGGLVKPGGSLRLSCAASGFTFSDYGIHWVRQAPGKGLEWVAYISSGSSIHNYADTVKGRFTISRDNAKNSLYLQMNSLRAEDTAVYYCARGPNYYGSSYLLVYWGQGTLVTVSS
VL: DIQMTQSPSSLSASVGDRVTITCKASQDVNIAVAWYQQKPGKAPKLLIYSASYRYTGVPSRFSGSGSGTDFTFTISSLQPEDIATYYCQQHYNIPWTFGGGTKVEIKR
notes: Full chains; also called P2-E8H4L1
For B2, the binding result in [1], in experiment [2], in experiment [3], in experiment [4], in experiment [5] and in experiment [6] was “no binding (tested: 10 µg/mL)” each time. Moreover, the binding result in experiment [7], in experiment [8] and in [9] was “no binding (tested: 10 µg/mL)” throughout. Further, the “absorbance at 450 nm” value was 0.954 absorbance at 450 nm in experiment [10]; 0.0467 absorbance at 450 nm in experiment [11]; 0.0461 absorbance at 450 nm in experiment [12]; 0.0569 absorbance at 450 nm in experiment [13]; 0.063 absorbance at 450 nm in experiment [14]; 0.0489 absorbance at 450 nm in [15]. Moreover, the “absorbance at 450 nm” value was found to be 0.0483 absorbance at 450 nm in experiment [16], 0.0516 absorbance at 450 nm in [17], 0.0467 absorbance at 450 nm in experiment [18] and 0.0504 absorbance at 450 nm in [19]. In experiment [20], this molecule yielded a Kd of 0.839 nM. In experiment [20], this molecule gave a koff of 0.000186 s⁻¹. In experiment [20], this molecule registered a kon of 222000 M⁻¹ s⁻¹.

B3: chimeric antibody ChP2-E10 (antibody, human IgG4 S228P, kappa, F234A L235A, V domains shown)
VH: DVQLQESGPGLVKPSQSLSLTCSVTGYSITSGYYWNWIRQFPGNKLEWMGYMSYEGTNNSNPSLKNRISITRDTSKNQFFLKLNSVTTEDTARYYCARERAYYYGTLGAMDYWGQGTSVTVSS
VL: DIQMTQSPASLSVSVGETVTITCRASENIYSNLAWYQQKQGKSPQLLVYAATNLADGVPSRFSGSGSGTQYSLKINSMQSEDFGSYYCQHFWDTPFTFGSGTKLEIKR
notes: Murine variable regions with hIgG4(LALA) and CL constant regions; also called M P2-E10
In experiment [22], B3 displayed a 50% effective concentration (EC50) of 0.0658 µg/mL and a Top of 1.65 absorbance at 450 nm.

B4: humanized antibody huP2-C6 (antibody, human IgG1, kappa, L234A L235A, V domains shown)
VH: EVQLVQSGAEVKKPGASVKVSCKASGYTFTDYYIHWVRQAPGQGLEWMGYIYPDTGYSGYNQKFKGRVTMTVDKSTSTAYMELRSLRSDDTAVYYCTRRGDYSGVHFDYWGQGTTVTVSS
VL: DIVLTQSPDSLAVSLGERATINCRASESVNNYGVGFLHWYQQKPGQPPKLLIYRASTLESGIPDRFSGSGSGTDFTLTISSLQAEDVAVYYCQHSYKDPPWTFGGGTKVEIKR
notes: Full chains; also called P2-C6H7L1
With B4, the binding result in experiment [1], in experiment [2], in experiment [3], in experiment [4], in experiment [5] and in experiment [6] was “no binding (tested: 10 µg/mL)” throughout. Also, the binding result in experiment [7], in experiment [8] and in experiment [9] was “no binding (tested: 10 µg/mL)” throughout. For the same molecule, the “absorbance at 450 nm” value in experiment [10] stood at 2.69 absorbance at 450 nm; in experiment [11] it was 0.0598 absorbance at 450 nm; in experiment [12], 0.0606 absorbance at 450 nm; in experiment [13], 0.0621 absorbance at 450 nm; in [14], 0.149 absorbance at 450 nm; in experiment [15], 0.0563 absorbance at 450 nm. In addition, the “absorbance at 450 nm” value turned out to be 0.0535 absorbance at 450 nm in [16], 0.0565 absorbance at 450 nm in experiment [17], 0.0613 absorbance at 450 nm in experiment [18] and 0.0605 absorbance at 450 nm in [19]. In addition, in experiment [20], the Kd is 0.0543 nM. This molecule also returned a koff in experiment [20] of 6.58e-05 s⁻¹. This molecule also yielded a kon in experiment [20] of 1.21e+06 M⁻¹ s⁻¹. In experiment [23], this molecule came in with an IC50 of 0.072 µg/mL.

The Kd is the concentration at which binding is half-saturated. As usually defined, the koff is the rate constant with which the complex falls apart. Low values mean a long-lived complex, high ones a short-lived complex. As usually defined, the kon is the rate constant with which the complex forms. A lower kon goes with slower complex formation. The term IC50 denotes the concentration needed to halve the response being measured. A lower IC50 goes with greater potency in that assay. A word on the EC50: it is the concentration at which the effect is half-maximal. Read a high EC50 as lower potency in that assay.

For the origin of these results see patent EP4585618A1 (Jiangsu Hengrui Pharmaceuticals Co., Ltd., dated 2025).
